Measured values published in paper PMC8691596 (PLoS ONE, 2021).

Biological target: T1, anti-CD20 IgG1 L234S/L235T/G236R (human)
T1 construct: rituximab VH, as in m1; human IgG1 constant region; as the light chain of m1; also called 2–52; variant 52; source: HEK293, transient, purified (Protein A)
Assay: SPR; antibody captured by biotin-labelled anti-human κ light chain on streptavidin CM5; soluble Fcγ receptor injected at one concentration (12.5 nM to 18 μM); HBS-EP+ pH 7.4, 25°C; Biacore 8K
Settings: both partners purified

B1: cynomolgus monkey FcγRI extracellular domain, C-terminal hexa-His (receptor)
chain: QVDTTKAVITLQPPWVSVFQEETVTLQCEVPRLPGSSSTQWFLNGTATQTSTPSYRITSASVKDSGEYRCQRGPSGRSDPIQLEIHRDWLLLQVSSRVFTEGEPLALRCHAWKDKLVYNVLYYQNGKAFKFFYRNSQLTILKTNISHNGAYHCSGMGKHRYTSAGVSVTVKELFPAPVLNASVTSPLLEGNLVTLSCETKLLLQRPGLQLYFSFYMGSKTLRGRNTSSEYQILTARREDSGFYWCEATTEDGNVLKRSPELELQVLGLQLPTPVWLH
- response: < 1 RU

B2: cynomolgus monkey FcγRIIb extracellular domain, C-terminal hexa-His (receptor)
chain: TPAAPPKAVLKLEPPWINVLREDSVTLTCGGAHSPDSDSTQWFHNGNLIPTHTQPSYRFKANNNDSGEYRCQTGRTSLSDPVHLTVLSEWLALQTPHLEFREGETIMLRCHSWKDKPLIKVTFFQNGKSKKFSHMDPNFSIPQANHSHSGDYHCTGNIGYTPYSSKPVTITVQVP
- response: < 1 RU

B3: cynomolgus monkey FcγRIIa extracellular domain, C-terminal hexa-His (receptor)
chain: KAVLKLEPPWINVLREDSVTLTCGGAHSPDSDSTQWFHNGNLIPTHTQPSYRFKANNNDSGEYRCQTGRTSLSDPVHLTVLSEWLALQTTHLEFREGETIMLRCHSWKDKPLIKVAFFQNGKSKKFSHMNPNFSIPQANHSHSGDYHCTGNIGYTPYSSKPVTITVQGLSSLVPSVGSSSPTG
- response: < 1 RU
